Numbering of substitutions follows the chain as printed. Names may count otherwise. “And” between values parts separate entries of the source, which are not always exact repeats. Equal entries are not always repeated.
Experiments:
DENND10 (recombinant) = target: T1, DENND10 (recombinant) (human, UniProt Q8TCE6 1-357); experiment: ITC; 50 μM DENND10 titrated into 10 μM wild type or mutant CCDC22(325–485)+CCDC93(310–488) complex, 100 mM Tris pH 7.4, 300 mM NaCl, 25°C, single site model; conditions: both partners purified
T1 construct: DENND10/FAM45A, human; also called FAM45A; recombinant DENND10; source: E. coli BL21 (DE3) (pGEX6P-1), purified (glutathione resin, gel filtration)
T1 sequence (Q8TCE6 whole entry): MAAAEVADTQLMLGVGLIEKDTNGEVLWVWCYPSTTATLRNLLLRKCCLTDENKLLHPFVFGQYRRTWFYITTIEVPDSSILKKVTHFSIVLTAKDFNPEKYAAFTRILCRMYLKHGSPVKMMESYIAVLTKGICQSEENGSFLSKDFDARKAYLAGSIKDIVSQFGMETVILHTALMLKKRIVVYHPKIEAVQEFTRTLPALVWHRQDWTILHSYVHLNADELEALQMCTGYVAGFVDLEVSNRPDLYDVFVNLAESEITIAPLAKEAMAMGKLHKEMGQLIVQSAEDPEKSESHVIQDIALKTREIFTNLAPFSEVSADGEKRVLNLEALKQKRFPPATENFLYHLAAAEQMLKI

VPS29 (recombinant) = VPS29 (recombinant) (human, UniProt Q9UBQ0 1-182); experiment: ITC; VPS35L peptides at 600 μM titrated into 20 μM VPS29, 100 mM Tris pH 7.4, 300 mM NaCl, 25°C, single site model; conditions: both partners purified

B1: CC1-CC2 complex (CCDC22(325–485) + CCDC93(310–488)), wild type (complex, human)
chain 1: VTWAAQEQELESLREQLEGVNRSIEEVEADMKTLGVSFVQAESECRHSKLSTAEREQALRLKSRAVELLPDGTANLAKLQLVVENSAQRVIHLAGQWEKHRVPLLAEYRHLRKLQDCRELESSRRLAEIQELHQSVRAAAEEARRKEEVYKQLMSELETLP
chain 2: GTSQLHRRKVISLNKQIAQKTKHLEELRASHTSLQARYNEAKKTLTELKTYSEKLDKEQAALEKIESKADPSILQNLRALVAMNENLKSQEQEFKAHCREEMTRLQQEIENLKAERAPRGDEKTLSSGEPPGTLTSAMTHDEDLDRRYNMEKEKLYKIRLLQARRNREIAILHRKIDEV
notes: CCDC22, human, CC1 and CC2 coiled-coil regions; CCDC93, human, CC1 and CC2 coiled-coil regions; also called CCDC22-CCDC93; source: E. coli BL21 (DE3), co-expressed (pRSF-duet), purified (Talon, gel filtration)
In the case of B1, the Kd (DENND10 (recombinant)) is reported as 34 nM and 28 nM.

B2: CC1-CC2 complex, CCDC22 (V360E) (complex, human)
chain 1: B1 chain 1 with V36E
chain 2: B1 chain 2
notes: CCDC22, human, CC1 and CC2 coiled-coil regions; CCDC93, human, CC1 and CC2 coiled-coil regions; source: E. coli BL21 (DE3), co-expressed (pRSF-duet), purified (Talon, gel filtration)
Binder B2 has a Kd (DENND10 (recombinant)) of 47.9 ± 3.5 nM.

B3: CC1-CC2 complex, CCDC93 (M392R) (complex, human)
chain 1: B1 chain 1
chain 2: B1 chain 2 with M83R
notes: as for B2
B3 showed a Kd (DENND10 (recombinant)) of 89.1 ± 10 nM.

B4: VPS35L (16-38) peptide (peptide)
peptide: EFASCRLEAVPLEFGDYHPLKPI
notes: VPS35L, human, residues 16-38; also called VPS35L peptide (Glu16-Ile38); source: synthetic peptide (Genscript)
With B4 the Kd (VPS29 (recombinant)) was 1870 nM.
